Measurements taken from PMC7570020, “The PIFs Redundantly Control Plant Defense Response against Botrytis cinerea in Arabidopsis”.

What was measured:
GST-PIF4 bHLH [1] = target: T1, GST-PIF4 bHLH (Arabidopsis thaliana, UniProt Q8W2F3 257-306); test: EMSA; Chemiluminescent EMSA Kit (Beyotime), manufacturer's protocol; buffer, salt, pH and temperature not stated; conditions: protein: recombinant; tags: N-terminal GST (pGEX); chain copies: 2; label: 5' biotin; blunt
T1 chain: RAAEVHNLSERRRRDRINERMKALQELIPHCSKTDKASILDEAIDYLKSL

GST-PIF5 [2] = target: T2, GST-PIF5 (Arabidopsis thaliana, UniProt Q84LH8 1-444); test: as above; conditions: protein: recombinant; tags: N-terminal GST (pGEX); chain copies: 2; label: 5' biotin; blunt
T2 sequence: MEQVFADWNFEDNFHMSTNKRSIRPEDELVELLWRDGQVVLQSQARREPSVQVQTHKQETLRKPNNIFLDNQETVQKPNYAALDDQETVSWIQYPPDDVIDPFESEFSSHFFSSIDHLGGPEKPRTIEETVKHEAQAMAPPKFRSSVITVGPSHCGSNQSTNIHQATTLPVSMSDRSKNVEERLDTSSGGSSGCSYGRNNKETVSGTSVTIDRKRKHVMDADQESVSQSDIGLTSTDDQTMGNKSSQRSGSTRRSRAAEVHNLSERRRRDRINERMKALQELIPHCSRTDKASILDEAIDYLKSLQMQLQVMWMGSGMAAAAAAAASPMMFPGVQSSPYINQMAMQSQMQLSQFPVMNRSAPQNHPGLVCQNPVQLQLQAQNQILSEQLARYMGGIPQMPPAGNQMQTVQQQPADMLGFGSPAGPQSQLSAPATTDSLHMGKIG

GST-PIF4 bHLH [3] = target: T1, GST-PIF4 bHLH; test: competition; increasing unlabeled competitor against labeled N1; Chemiluminescent EMSA Kit (Beyotime), manufacturer's protocol; buffer, salt, pH and temperature not stated; conditions: protein: recombinant; tags: N-terminal GST (pGEX); chain copies: 2; label: none; blunt
GST-PIF5 [4] = target: T2, GST-PIF5; test: as above; conditions: protein: recombinant; tags: N-terminal GST (pGEX); chain copies: 2; label: none; blunt

B1: ERF1 G-box probe (dsDNA)
DNA 1: GAGCCAAAAACTTTGAACACGTGCGGGATATCAAATAATCA
DNA 2: TGATTATTTGATATCCCGCACGTGTTCAAAGTTTTTGGCTC
binding result (GST-PIF4 bHLH [1]): binds | binding result (GST-PIF5 [2]): binds

B2: ERF1 competitor (dsDNA)
DNA 1: B1 DNA 1
DNA 2: B1 DNA 2
binding result (GST-PIF4 bHLH [3]): binds | binding result (GST-PIF5 [4]): binds
